# Data taken from patent US9884094B2, “Method of treating diabetes mellitus” (Novo Nordisk A/S, priority 2012, dated 2018).
# Columns and labels:
# [1] = Hydrophobicity k′rel by RP-HPLC relative to human insulin; format: physicochemical; conditions: LiChrosorb RP18, isocratic, 40° C., pH 7.3
# Method: The elution was monitored by following the UV absorption of the eluate at 214 nm. Void time, t0, was found by injecting 0.1 mM sodium nitrate.
# human insulin receptor = human insulin receptor (Homo sapiens, UniProt P06213); experiment: Insulin receptor binding, SPA antibody capture assay (Assay I); conditions: recombinant human insulin receptor, A14 Tyr[125I]-human insulin
# Chain of human insulin receptor (P06213 28-1370 isoform P06213-2 limits assumed): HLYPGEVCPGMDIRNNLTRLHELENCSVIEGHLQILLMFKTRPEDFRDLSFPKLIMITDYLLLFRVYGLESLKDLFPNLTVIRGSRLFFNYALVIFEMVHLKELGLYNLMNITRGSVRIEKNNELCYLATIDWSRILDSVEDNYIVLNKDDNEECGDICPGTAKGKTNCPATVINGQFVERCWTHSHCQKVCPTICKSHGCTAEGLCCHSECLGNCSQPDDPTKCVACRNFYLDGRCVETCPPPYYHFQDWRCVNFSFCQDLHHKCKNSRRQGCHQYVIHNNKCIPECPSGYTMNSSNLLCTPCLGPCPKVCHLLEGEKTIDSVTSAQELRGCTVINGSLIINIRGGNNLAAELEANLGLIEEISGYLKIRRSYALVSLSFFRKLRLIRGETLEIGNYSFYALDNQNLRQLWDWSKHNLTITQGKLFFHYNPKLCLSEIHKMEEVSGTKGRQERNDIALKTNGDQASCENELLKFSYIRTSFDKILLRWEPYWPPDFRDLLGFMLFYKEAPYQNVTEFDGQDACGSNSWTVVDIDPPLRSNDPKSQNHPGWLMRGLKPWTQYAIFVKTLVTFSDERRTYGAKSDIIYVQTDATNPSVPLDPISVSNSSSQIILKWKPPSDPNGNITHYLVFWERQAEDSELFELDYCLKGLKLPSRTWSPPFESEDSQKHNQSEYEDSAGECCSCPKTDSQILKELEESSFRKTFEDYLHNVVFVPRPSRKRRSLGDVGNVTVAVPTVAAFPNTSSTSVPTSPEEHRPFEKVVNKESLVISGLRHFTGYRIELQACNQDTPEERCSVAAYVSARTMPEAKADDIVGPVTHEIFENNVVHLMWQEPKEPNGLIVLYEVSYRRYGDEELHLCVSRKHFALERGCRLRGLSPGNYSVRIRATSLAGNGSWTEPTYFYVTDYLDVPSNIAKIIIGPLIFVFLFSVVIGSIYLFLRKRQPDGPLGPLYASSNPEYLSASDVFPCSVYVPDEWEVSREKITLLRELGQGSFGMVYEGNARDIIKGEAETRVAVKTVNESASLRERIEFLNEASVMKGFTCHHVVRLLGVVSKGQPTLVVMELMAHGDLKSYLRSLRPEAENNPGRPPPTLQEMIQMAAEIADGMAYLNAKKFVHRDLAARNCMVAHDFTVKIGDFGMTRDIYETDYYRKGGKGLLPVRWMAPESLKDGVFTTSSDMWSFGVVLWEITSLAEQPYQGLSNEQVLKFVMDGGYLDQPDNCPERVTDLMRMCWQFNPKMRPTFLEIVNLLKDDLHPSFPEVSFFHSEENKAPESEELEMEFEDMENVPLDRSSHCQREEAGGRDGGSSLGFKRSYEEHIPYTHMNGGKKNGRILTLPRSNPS
# Method: A total of 100 μl was then added and a dilution series is made from appropriate samples. […] The phases were the then separated by centrifugation for 1 min and the plates counted in a Topcounter. The binding data were fitted using the nonlinear regression algorithm in the GraphPad Prism 2.01 (GraphPad Software, San Diego, Calif.).
# Specific antibodies (F12) were produced by monoclonal technique: RBF mice were immunized by injecting 50 μg of purified mIR in FCA subcutaneously followed by two injections with 20 μg of mIR in FIA. […] Supernatants were screened for antibody production in a mIR specific ELISA. Positive wells were cloned and tested in Western blotting.
Receptor binding (% of human insulin) (human insulin receptor),Substance,k′rel (hydrophobic index relative to human insulin) [1]
5.7 % of human insulin,N^εB29—(N—(HOOC(CH2)14CO-ε-L-LysCO—) des(B30) Human Insulin,0.90
20 % of human insulin,N^εB29—(N-(L-Sar-OC(CH2)13CO-γ-L-Glu) des(B30) Human Insulin,0.63
9.2 % of human insulin,NεB29-(Nα—(HOOC(CH2)16CO)-γ-Glu) des(B30) Human Insulin,1.15
–,N^εB29—(N^α—(HOOC(CH2)16CO)-γ-Glu-N-(γ-Glu)) des(B30) Human Insulin,1.17
9.4 % of human insulin,N^εB29—(N-(L-Glu-OC(CH2)14CO—) des(B30) Human Insulin,1.17
9.4 % of human insulin,N^εB29—[N—(HOOC(CH2)16CO)—N-(carboxymethyl)-β-Ala] des(B30) Human Insulin,–
